Measurements: article doi:10.64898/2025.12.09.693212

Biological target: T1, yeast topo II (full-length) (Saccharomyces cerevisiae, UniProt P06786 1-1428)
T1 sequence: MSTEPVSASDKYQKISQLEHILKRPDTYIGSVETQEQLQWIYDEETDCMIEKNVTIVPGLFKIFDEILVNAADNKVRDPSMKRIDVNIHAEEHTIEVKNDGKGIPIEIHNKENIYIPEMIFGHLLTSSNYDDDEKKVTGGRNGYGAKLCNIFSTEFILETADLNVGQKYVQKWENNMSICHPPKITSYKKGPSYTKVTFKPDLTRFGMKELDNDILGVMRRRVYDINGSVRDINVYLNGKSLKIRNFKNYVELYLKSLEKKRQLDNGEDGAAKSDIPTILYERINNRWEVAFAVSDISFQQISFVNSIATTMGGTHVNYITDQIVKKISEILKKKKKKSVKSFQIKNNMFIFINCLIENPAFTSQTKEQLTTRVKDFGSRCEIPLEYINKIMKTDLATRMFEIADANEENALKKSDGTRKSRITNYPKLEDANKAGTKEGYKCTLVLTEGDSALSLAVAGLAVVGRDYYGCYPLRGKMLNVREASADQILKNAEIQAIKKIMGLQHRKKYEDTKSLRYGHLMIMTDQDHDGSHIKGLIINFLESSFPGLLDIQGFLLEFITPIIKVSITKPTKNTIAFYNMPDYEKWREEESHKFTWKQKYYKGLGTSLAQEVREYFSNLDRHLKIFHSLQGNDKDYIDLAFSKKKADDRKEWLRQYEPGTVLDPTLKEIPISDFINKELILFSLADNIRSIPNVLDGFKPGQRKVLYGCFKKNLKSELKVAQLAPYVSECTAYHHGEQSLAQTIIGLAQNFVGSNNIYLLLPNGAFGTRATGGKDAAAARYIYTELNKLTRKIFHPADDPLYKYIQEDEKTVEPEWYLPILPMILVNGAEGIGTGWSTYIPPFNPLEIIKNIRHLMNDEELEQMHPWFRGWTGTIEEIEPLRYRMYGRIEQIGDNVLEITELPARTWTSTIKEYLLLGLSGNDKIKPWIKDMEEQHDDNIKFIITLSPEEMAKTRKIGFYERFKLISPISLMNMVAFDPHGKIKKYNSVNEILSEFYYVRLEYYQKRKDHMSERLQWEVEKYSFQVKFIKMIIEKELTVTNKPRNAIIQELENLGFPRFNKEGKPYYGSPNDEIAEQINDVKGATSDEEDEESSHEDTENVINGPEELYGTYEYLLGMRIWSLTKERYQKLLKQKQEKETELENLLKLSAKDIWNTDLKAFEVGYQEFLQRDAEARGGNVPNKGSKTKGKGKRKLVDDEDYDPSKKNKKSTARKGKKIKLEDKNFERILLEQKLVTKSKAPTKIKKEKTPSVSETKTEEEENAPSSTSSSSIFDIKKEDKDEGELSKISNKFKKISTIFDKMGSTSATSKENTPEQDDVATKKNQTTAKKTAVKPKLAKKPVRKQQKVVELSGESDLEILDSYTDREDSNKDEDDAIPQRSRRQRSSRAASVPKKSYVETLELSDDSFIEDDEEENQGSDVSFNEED
Experiment: EMSA

B1: 51 bp dsDNA (dsDNA)
DNA 1: TATTTTCTTGTTCTTTTACATCAACACAATGTGACCATTACCTGGTTATCA
DNA 2: TGATAACCAGGTAATGGTCACATTGTGTTGATGTAAAAGAACAAGAAAATA
Kd: ~50 nM
